Assay: label from the status in PepcDB records
For “MQGIPLGSEYFEKLDPYFLVCIAKEYLLFCPKQPRLPGQIVSPLLKQVAVILNPVVKAAPALIDPLYLMAQVRYYSGELENAQSILQRCLELDPASVDAHLLMCQIYLAQGNFGMCFHCLELGVSHNFQVRDHPLYHLIKARALNKAGDYPEAIKTLKMVIKLPALKKEEGRKFLRPSVQPSQRASILLELVEALRLNGELHEATKVMQDTINEFGGTPEENRITIANVDLVLSKGNVDVALNMLRNILPKQSCYMEAREKMANIYLQTLRDRRLYIRCYRELCEHLPGPHTSLLLGDALMSILEPEKALEVYDEAYRQNPHDASLASRIGHAYVKAHQYTEAIEYYEAAQKINGQDFLCCDLGKLLLKLKKVNKAEKVLKQALEHDIVQDIPSMMNDVKCLLLLAKVYKSHKKEAVIETLNKALDLQSRILKRVPLEQPEMIPSQKQLAASICIQFAEHYLAEKEYDKAVQSYKDVFSYLPTDNKVMLELAQLYLLQGHLDLCEQHCAILLQTEQNHETASVLMADLMFRKQKHEAAINLYHQVLEKAPDNFLVLHKLIDLLRRSGKLEDIPAFFELAKKVSSRVPLEPGFNYCRGIYCWHIGQPNEALKFLNKARKDSTWGQSAIYHMVQICLNPDNEVVGGEAFENQGAESNYMEKKELEQQGVSTAEKLLREFYPHSDSSQTQLRLLQGLCRLATREKANMEAALGSFIQIAQAEKDSVPALPALAQAYVFLKQIPKARMQLKRLAKTPWVLSEAEDLEKSWLLLADIYCQGSKFDLALELLRRCVQYNKSCYKAYEYMGFIMEKEQSYKDAVTNYKLAWKYSHHANPAIGFKLAFNYLKDKKFVEAIEICNDVLREHPDYPKIREEILEKARKSLRP”, the protein production was “failed”.
For “MQHGPVVRRRKLGAELRALRTSAGITSGEAARLVGWHQSKVSRIETGTSGAKPADVRLLLDAYGVTDEQLRGLLVMLAHSEDAGGRNHWWHAYRGVLPPTYRDFISLESQAAAMRTLETTVVPGLLQTPEYARAVTRAAVDGMPAERLDTLVEVRLARQDVLRGEPPLELSAVLDEAVLRRVVGGPGVMSRQLTRLVEAAQLPHVRIQVLPFAAGAHIGVTGPFVIFSFSSTSDLDVVVLDHLTSSLHLERKEDLEAYTEAFNALLIHALSPEDSLDFIAATAAGA”, the protein production was “failed”.
For “MQHLDLQVVRKALKWSVGGERVWFCTVLTTYGSAPRAPGSLLAVNASGEWIGSLSGGCVEDDFLERVAAGGFPDPAVIVRYGEGDDPNSNIRLPCGGILDVLVENLAPDCDVQAHLRELESALLGQRRLLREVELGSGARSLRDDSSHGPRAERDGECVRLRVGAAQRLLLAGYSSVAHACAEFGKGLGFEVILCDPREEALRGVVLEGIEIRRELPSLFIADGGCHADTAVVALTHDPKIDDLAMLEAVRTEAFYIGVMGSRATSEKRFERLRRIGGLGDAELARIHAPIGLNLGSKTPAEIALAVLADILRIRNGIPRERL”, the protein production was “failed”.
For “MQHNELKTPYFMINEDKLIANLEKAKQLKEISGVKLVLALKCFSTWGVFDIIKPYLDGTTSSGPFEVKLGYETFGGETHAYSVGYSEDDVREVADICDKMIFNSQSQLAAYRHIVEGKASIGLRLNPGVSYAGQDLANPARKFSRLGVQADHIKPEVFEGIDGVMFHMNCENKDVDAFIGLLDAISEQFGEYLNKLDWVSMGGGVFFTWPGYDIEKLGLALKAFSEKHGVQMYLEPGEAIITKTTDLVVTVVDIVENVKKTAIVDSATEAHRLDTLIYNEPASILEASDNGEHEYVIGSCSCLAGDQFCVANFDQPLEIGQRLHILDSAGYTMVKLNWFNGLRMPSVYCERSSGEIQKLNEFDYSDFKRSLSQWSVK”, the protein production was “failed”.
For “MQIFETILIFLALVILSSFLHTFLPKIPLAFIQIILGMLLYVTPIPVQFNFDSELFMVALIAPLLFVEGVKVSRVHLRRYIKPVLMMALGLVVTTVIVVGLFVHWIWPELPMAAAFALAAILCPTDAVAVQAITNGKVLPKGSMTILEGESLLNDAAGIISFKIAVAALITGGFSMVNAVEQFLISSIGGFIVGLLIGVALVRFRVTLSRRGIENINMFTFIQLVTPFITYIVAEMFHASGIIAAVVAGLVHGFERDRIAQARTRLQMSYNHTWNILGYALNGFVFSILGFLIPEVVGRIIENEPHNLIFLITVTCLIALAIYLFRFLWVFVLYPYFYLPVSPFQKMISHNEDDQKTAETPPKRGMYAFIMTLCGVHGTISLAIALTLPYMLADHHSFIFRDDLLFIASGMVIISLIVAQMILPVVTPNAKKPKIVGMNFKQARVYILEKVIDSLNQQSSVTSSFQYGNVIKDYHDKLAFLRTVENEDENTKELQRLQKLAFDVENQTLNGLVENGDITTNVLDNYMRYTERTQVYKQASLLQRIKVEVRAMILKRRIRTKVKTNAASPLSVVDNLREISNIMRTVHYRVVSRLGKETTENNKLEVGMICDSYLIRIDNLTPSNFFNPKNENSITKIKLSALKEQRRILNQLVEDEEVSEVTALKIREAINYDEMIIVDSSTD”, the protein production was “failed”.
For “MQILEDFDGKALPKLETDRLILRQRTVGDVPAMFDYVCLEEVAYPAGLSPIASLEDEYDYFENRYYQNLEKAKLPSGYGITVKGSDRIIGSCAFNHRHEDDVFEICYLLHPDYWGHGYMTEAVAALIEVGFTLLNLHKIEIRCYDYNKQSRRVAEKLGFTLEATIRDRKDNQDNRCVNLIYGLLRSEWE”, the protein production was “failed”.
For “MQIVQIARPGSMKGWIRKAVARYAHATGRGGKFYRRFCNPSGLEWGAYLARWGNFHSVGSNFYVNTGCKFLDPSLVRIGNSVGLSDCTLIGHDGVVLLIEHRFGKHLDSVGFIDIKDNCFIGHGAIVMPRVTIGPESIVAAGAVVTKDVPPGTVYGGNPAEFICTTEQLIKRVEARCEAYPWIDLVKQRNGAYDPEVEPLLMAQRRQYFFGDSLEHHHHHH”, the protein production was “failed”.
In the case of “MQKFLDWLERVLTPLAKVIGENKYLVAIRDGFLLSTPLLIVGSVFLLIANFPLPQWDTWMSHLLGKDWATMMSVPASASFDVMTILAVVGIAYSLGKQFNVDAMQAGIIALVSFFIVTPYQTLFTPENSSKVYEVTSLPLKWMGSSGLFLGMIVALIATRLFVAIVRKGWTIKMPEGVPPTVVKSFEALIPSFLVVTLMFLVNWLAALTPYGNLQDVIFEFLQTPLLSLGNTLGAMSIAYLFLHFFWFFGINGGSVVGAVFNPVLRALSVENLQAFKDGHEIPNIITGQFQDMFATFGGAGSTLSLIIVMVLFCKSQRIKKLSQLSLIPGVFGINEPIIFGLPIVLNPILLIPFVLVPAINIIIAYFAMDWGLVPLTNGIQLPWTTPPIISGFLVSGWQGSILQALLLVLGMFIYYPFIRVMDDQYLREEWKAQEEESEEIDFDSFDFDDL”, the protein production was “failed”.
For “MQKIVIVANGAPYGSESLFNSLRLAIALREQESNLDLRLFLMSDAVTAGLRGQKPGEGYNIQQMLEILTAQNVPVKLCKTCTDGRGISTLPLIDGVEIGTLVELAQWTLSADKVLTF”, the protein production was “not failed”.
For “MQKKQVIAVLVAVVGIGIVFSLPKVLVDNEKESVEGAEVTVAHEDSLSEVGKLMAEKHTHKPSDSEQKKLQDFTKNYYSISDKEKKRIFADSILGYYNKFHKYDSVAKYSGEIAMLQPNEKNLLSAADAYMQASDLVSVNEKSAYMDKSRLYYEKALDINASNLDTKSKLAMTYVTTSNPMTGIRILQEVVKEDPRNETAIFNLGYLSMQSRQYNKAVDRFKSLIEINPAHASGTFYLGLSYLELGNKGKANQYFMKAKGLDSDPEFQAIIDSYLKESN”, the protein production was “failed”.
With “MQLPLHQVAQPAFYISVVPDMVGGRLSSHDRDLLGLAHQLAGQDGAVLAVVFGEHKESAFATAGVDRLLVLQGSEFEGYAPEQRVQGLRAVDNQFSPRHWLLPDSRTGGGELGRRFAAALGERPATRVWQVKDGQCIGRAGAGLQDLARPVVRLILAAAECAEPVSETRHEALPVELSTSVARSLARIEDLGAVAVDPAAIPMAEAEFIFSGGNGVKDWPLFHQTAAALGATEGASRVAVDDGFMARDRQVGASGIWVTARVYVAVGISGAIQHLQGIGACDKVVAINLDPGCDMIKRADLSVIGDSAEILKALIAAVAAYRNDAKRDAA” the protein production was “failed”.
With “MQLPTQQVAVLDAASTDDPQRIEALAADTDYPPETIAGAALALEAEGLVAVTETTTTTVSLTDEGHAYATDGLPEVRLYRAALDAGADDAPVEMGSVIGAAGLDGPQVDIALSNYARKGYGTIDSGALAADPDADPENDPEADALATLTDGDSVDDDAVVDQLASRDLVTVSERTVRSVTLTEAGVTELMAGVEATDEVGELTPELLASGEWADVEFADYNVAADAADHTPGKTHVLRQAAERVTDVLVGMGFQEMAGPHVDADFYINDCLFMPQDHPARNHWDRFALSNPARIDELPDALVERVERAHREGAGDDGDGYHSPWDEDFARALALRGHTTSLTARHLAGLADADVEAPARYFSVEKAYRNDTLDATHLLEFFQIEGWVLADDLSVRDLMGTFREFYSQFGIHDLQFKPTYNPYTEPSFELFGRHPETGELIEIGNSGIFRPEMLDPLDVDGDVMAWGLALERLLMLMTGFEDIRDVHGTLCDVGFLRNAEVVY” the protein production was “failed”.
For “MQLVVARIGRAHGIKGEVTVEVRTDEPELRLGPGAVLATDPASVGPLTIETGRVHSGRLLLRFEGVRDRNGAEALRNTLLIAEVDPDEVPEDPDEYYDHQLMDLDVVTKDGTEVGRITEISHLPSQDLFVVERSDGSEVYIPFVEEIVVEIDLEEQRAVIDPPPGLIDDRAEVDSSDTEAATEADALEHHHHHH”, the protein production was “not failed”.
In the case of “MQMDSAQNQFNKRARLFEDPELKDAKVIYPSNPESTEPVNKGYGGSTAIQSFFKESKAEETPKVLKKRGRKKKNPNPEEVNSSTPGGDDSENRSKFYESASARKRTVTAEERERAVNAAKTFEPTNPYFRVVLRPSYLYRGCIMYLPSGFAEKYLSGISGFIKLQLGEKQWPVRCLYKAGRAKFSQGWYEFTLENNIGEGDVCVFELLRTRDFVLEVTAFRVNEYV”, the protein production was “failed”.
In the case of “MQMSMLTRLHYFNCVVETGSISKASRIFDVQPSSISRQLTALEKELGVLLLKRTSRNIGLTEAGQTYYKYSQKIVSDLDEARCAVNDLQQKPKGNLKVSMAVGFAECCILPMIPTFTKLYPEINLELEMTGRVVDLVEENVDVAIRTGRLRDSNLIALKLTSNNFLLCASPQYITEHGTPKSPFNLTDFECIRYEYAGWRDWYLMNDKPTKLTIKSGLTVRSINGQKQLILNHAGLALMPKWSVINELDNGTLVQVLEQNIFSPYESMSSTYAIYLKRELISPKVRVFIDFIKDHIDYNS”, the protein production was “failed”.
For “MQNIRVVLARPNHPGNIGSAARAMKTMGLSRLYLVEPKVFPSEEANALASGAVDLLENATVVGSLREALSDVTVACALTSRRRELTTPLSTPRQTTPELIARARDGEQVALVFGNETFGLSIEEVEQCNRLVTIPGNPDYFSLNLAMAVQVMTYELFSHTGVDVEYLRAEGEAATQSEVDGMCGHLEQAMDEIGYFQRRNSERLMRRMRTMFHRAGMLREEIDILRGFYKQVQRTASGRSGDAD”, the protein production was “failed”.
With “MQNNSYGYAVSVRVGGKEHRHWERYDIDSDFLIPADSFDFVIGRLGPEAAIPDLSGESCEVVIDGQIVMTGIIGSQRHGKSKGSRELSLSGRDLAGFLVDCSAPQLNVKGMTVLDAAKKLAAPWPQIKAVVLKAENNPALGKIDIEPGETVWQALTHIANSVGLHPWLEPDGTLVVGGADYSSPPVATLCWSRTDSRCNIERMDIEWDTDNRFSEVTFLAQSHGRSGDSAKHDLKWVYKDPTMTLHRPKTVVVSDADNLAALQKQAKKQLADWRLEGFTLTITVGGHKTRDGVLWQPGLRVHVIDDEHGIDAVFFLMGRRFMLSRMDGTQTELRLKEDGIWTPDAYPK” the protein production was “not failed”.
